From publication PMC7409301, “Natural Killer Cell Activation Receptor NKp30 Oligomerization Depends on Its N-Glycosylation” (Cancers, 2020)
Values joined by “and” are separate entries in the source; they are usually repeats but may differ in a detail not shown here. Equal values may be shown once. Values belong to the molecule of their own block, whether it stands above or below them.

Assays:
[1] = molecular target: NKp30_Stalk, uniform simple N-glycans (expressed in HEK293S GnTI^−) (human) (UniProt O14931); assay: SPR; NKp30_Stalk monomer; conditions: domain or fragment
[2] = molecular target: NKp30_Stalk, uniform simple N-glycans (expressed in HEK293S GnTI^−) (human) (UniProt O14931); assay: SPR; NKp30_Stalk monomer; conditions: domain or fragment; remark: listed apart in the source
[3] = molecular target: NKp30_Stalk, wild-type N-glycosylation (expressed in HEK293T) (human) (UniProt O14931); assay: SPR; NKp30_Stalk monomer; conditions: domain or fragment
[4] = molecular target: NKp30_Stalk, deglycosylated with endoglycosidase Endo F1 (human) (UniProt O14931); assay: SPR; conditions: domain or fragment
[5] = molecular target: NKp30_Stalk, uniform simple N-glycans (expressed in HEK293S GnTI^−) (human) (UniProt O14931); assay: SPR; NKp30_Stalk oligomer; conditions: domain or fragment
[6] = molecular target: NKp30_Stalk, wild-type N-glycosylation (expressed in HEK293T) (human) (UniProt O14931); assay: SPR; NKp30_Stalk oligomer; conditions: domain or fragment
B7-H6 (Homo sapiens) = B7-H6 (Homo sapiens) (UniProt Q68D85); conditions: cited from earlier work
[7] = molecular target: NKp30_LBD (Ligand Binding Domain), glycosylation state not told in the text for the experiment (human) (UniProt O14931); assay: AUC; NKp30_LBD at high concentration, 20 mg/mL, 50,000 rpm, 3 mm centerpiece, interference optics, nonideal c(s) model
[8] = molecular target: B7-H6 C212S extracellular portion, uniform simple N-glycans (expressed in HEK293S GnTI^−) (UniProt Q68D85); assay: SPR; conditions: domain or fragment
[9] = molecular target: B7-H6 C212S extracellular portion, glycosylation state not told in the text for the experiment (UniProt Q68D85); assay: SPR; Biacore T200; biotinylated B7-H6 on streptavidin sensor; analyte NKp30_LBD, deglycosylated NKp30_Stalk or the monomeric fraction of NKp30_Stalk, 1 nM to 16.3 μM, single cycle kinetics; 10 mM HEPES pH 7.5, 150 mM NaCl, 1 mg/mL dextran, 0.05% Tween-20; steady-state responses fitted with AB hetero-association model
[10] = molecular target: B7-H6 C212S extracellular portion, glycosylation state not told in the text for the experiment (UniProt Q68D85); assay: SPR; as a7 but analyte is the oligomeric fraction of NKp30_Stalk; increase in affinity put down to the avidity of the oligomers
[11] = molecular target: B7-H6 C212S extracellular portion, uniform simple N-glycans (expressed in HEK293S GnTI^−) (UniProt Q68D85); assay: SPR; NKp30_Stalk monomer; conditions: domain or fragment
[12] = molecular target: B7-H6 C212S extracellular portion, uniform simple N-glycans (expressed in HEK293S GnTI^−) (UniProt Q68D85); assay: SPR; NKp30_Stalk oligomer; conditions: domain or fragment
[13] = molecular target: B7-H6 C212S extracellular portion, wild-type N-glycosylation (expressed in HEK293T) (UniProt Q68D85); assay: ITC; NKp30_Stalk oligomer; conditions: domain or fragment
[14] = molecular target: B7-H6 C212S extracellular portion, wild-type N-glycosylation (expressed in HEK293T) (UniProt Q68D85); assay: ITC; NKp30_Stalk monomer; conditions: domain or fragment
[15] = molecular target: B7-H6 C212S extracellular portion, wild-type N-glycosylation (expressed in HEK293T) (UniProt Q68D85); assay: ITC; NKp30_Stalk monomer; conditions: domain or fragment; remark: listed apart in the source
[16] = molecular target: NKp30_Stalk, wild-type N-glycosylation (expressed in HEK293T) (human) (UniProt O14931); assay: AUC; sedimentation velocity of glycosylated and deglycosylated NKp30_Stalk oligomers, 20 μM, 20 °C, 10 mM HEPES pH 7.5, 150 mM NaCl, 10 mM NaN3, 36,000 or 48,000 rpm
[17] = molecular target: T1, B7-H6 C212S extracellular portion, uniform simple N-glycans (expressed in HEK293S GnTI^−) (UniProt Q68D85 25-245, C212S, uniform Asn-GlcNAc2Man5 N-glycans; biotinylated with EZ-Link NHS-Biotin for SPR; labelled with ATTO 488-NHS ester for the two-wavelength sedimentation analysis); assay: SPR
T1 sequence: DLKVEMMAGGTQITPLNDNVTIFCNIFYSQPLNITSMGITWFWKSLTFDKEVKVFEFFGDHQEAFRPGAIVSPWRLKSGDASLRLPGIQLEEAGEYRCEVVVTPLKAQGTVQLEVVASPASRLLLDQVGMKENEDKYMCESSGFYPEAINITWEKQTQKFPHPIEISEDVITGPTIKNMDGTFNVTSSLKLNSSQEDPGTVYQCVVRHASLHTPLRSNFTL

[18] = molecular target: T2, B7-H6 C212S extracellular portion, wild-type N-glycosylation (expressed in HEK293T) (UniProt Q68D85 25-245, C212S, complex wild-type N-glycans (HEK293T); biotinylated with EZ-Link NHS-Biotin for SPR); assay: ITC
T2 sequence: T1 sequence

[19] = molecular target: NKp30_Stalk, glycosylated, type of N-glycans not told in the text for the experiment (human) (UniProt O14931); assay: AUC; sedimentation velocity of the monomeric fraction of glycosylated NKp30_Stalk, of B7-H6 and of their equimolar mixture, 20 μM, 20 °C, HEPES buffer
[20] = molecular target: NKp30_Stalk, wild-type N-glycosylation (expressed in HEK293T) (human) (UniProt O14931); assay: ITC; as a9 but the oligomeric fraction of NKp30_Stalk in the cell
[21] = molecular target: NKp30_Stalk, wild-type N-glycosylation (expressed in HEK293T) (human) (UniProt O14931); assay: AUC; sedimentation velocity of the oligomeric fraction of NKp30_Stalk (HEK293T) with ATTO488-labelled B7-H6, read at 280 nm (total) and 480 nm (B7-H6 only), 20 °C
[22] = sedimentation velocity AUC; conditions: glycan changed form; control: NKp30_Stalk from HEK293S GnTI− (uniform glycans)
[23] = solubility during deglycosylation in HEPES buffer; conditions: glycan lost; control: glycosylated B7-H6 (HEK293S GnTI−)

Kd [1]: 380 nM
Molecule: B7-H6 C212S extracellular portion, deglycosylated with endoglycosidase Endo F1 (from UniProt Q68D85 25-245)

Kd [2]: 370 nM
Kd [1]: 350 nM
Kd [3]: 380 nM
Kd [4]: 350 nM
Kd [5]: 70 nM
Kd [6]: 90 nM
Molecule: B7-H6 C212S extracellular portion, uniform simple N-glycans (expressed in HEK293S GnTI^−) (from UniProt Q68D85 25-245)

Kd [1]: 370 nM
Molecule: B7-H6 C212S extracellular portion, wild-type N-glycosylation (expressed in HEK293T) (from UniProt Q68D85 25-245)

Molecule: NKp30 (from UniProt O14931)
Kd (B7-H6 (Homo sapiens)): 1000 nM

stoichiometry N [7]: 2
Molecule: NKp30_LBD (Ligand Binding Domain), glycosylation state not told in the text for the experiment (from UniProt O14931 19-130) (domain or fragment)

Kd [8]: 350 nM
Molecule: NKp30_Stalk, deglycosylated with endoglycosidase Endo F1 (from UniProt O14931 19-135)

fold higher affinity than NKp30 LBD [9]: 2 fold
fold stronger binding than NKp30 LBD [10]: 10 fold
fold stronger binding than the NKp30 Stalk monomeric fraction [10]: 4 fold
Molecule: NKp30_Stalk, glycosylated, type of N-glycans not told in the text for the experiment (from UniProt O14931 19-135) (domain or fragment)

Kd [11]: 370 nM
Kd [12]: 70 nM
Kd [13]: 1000 nM
Kd [14]: 960 nM
Kd [15]: 970 nM
Molecule: NKp30_Stalk, uniform simple N-glycans (expressed in HEK293S GnTI^−) (from UniProt O14931 19-135)

Kd [11]: 380 nM
Kd [12]: 90 nM
Kd [13]: 830 nM
Kd [15]: 590 nM
Molecule: NKp30_Stalk, wild-type N-glycosylation (expressed in HEK293T) (from UniProt O14931 19-135)

stoichiometry N [16]: 8 units and 16 units
Molecule: NKp30_Stalk, wild-type N-glycosylation (expressed in HEK293T) (from UniProt O14931 19-135) (domain or fragment)

Kd [17]: 1010 nM
Kd [18]: 890 nM
B1: NKp30_LBD (Ligand Binding Domain), uniform simple N-glycans (expressed in HEK293S GnTI^−) (domain or fragment)
chain: LWVSQPPEIRTLEGSSAFLPCSFNASQGRLAIGSVTWFRDEVVPGKEVRNGTPEFRGRLAPLASSRFLHDHQAELHIRDVRGHDASIYVCRVEVLGLGVGTGNGTRLVVEKE
modifications: uniform Asn-GlcNAc2Man5 N-glycans; GlcNAc modelled at Asn42 in the crystal structure

Kd [17]: 910 nM
Kd [18]: 770 nM
B2: NKp30_LBD (Ligand Binding Domain), wild-type N-glycosylation (expressed in HEK293T) (domain or fragment)
chain: B1 chain
modifications: complex wild-type N-glycans (HEK293T)

Kd [17]: 690 nM
Kd [18]: 550 nM
B3: NKp30_LBD (Ligand Binding Domain), deglycosylated with endoglycosidase Endo F1 (domain or fragment)
chain: B1 chain
modifications: a single GlcNAc unit left at each N-glycosylation site after Endo F1

stoichiometry N [19]: 1
percent of NKp30 Stalk T oligomers accessible [20]: 60 to 70%
B4: B7-H6 C212S extracellular portion, glycosylation state not told in the text for the experiment (domain or fragment)
chain: T1 sequence
modifications: glycosylation state marked only in the figures; biotinylated with EZ-Link NHS-Biotin for SPR

percent of NKp30 binding sites occupied by B7-H6 in the oligomers [21]: 60%
stoichiometry N ([21]; scale: B7-H6 molecules per eight NKp30 molecules): 5
B5: B7-H6 C212S extracellular portion, uniform simple N-glycans (expressed in HEK293S GnTI^−) (domain or fragment)
chain: T1 sequence
modifications: uniform Asn-GlcNAc2Man5 N-glycans; biotinylated with EZ-Link NHS-Biotin for SPR; labelled with ATTO 488-NHS ester for the two-wavelength sedimentation analysis

B6: NKp30: HEK293T wild-type glycosylation (protein)
parent chain: MAWMLLLILIMVHPGSCALWVSQPPEIRTLEGSSAFLPCSFNASQGRLAIGSVTWFRDEVVPGKEVRNGTPEFRGRLAPLASSRFLHDHQAELHIRDVRGHDASIYVCRVEVLGLGVGTGNGTRLVVEKEHPQLGAGTVLLLRAGFYAVSFLSVAVGSTVYYQGKCLTWKGPRRQLPAVVPAPLPPPCGSSAHLLPPVPGG
oligomerisation [22]: changes, one dominant species of ca 8 units and with secondary species of ca 16 units

B7: B7-H6: Endo F1 (protein)
parent chain: MTWRAAASTCAALLILLWALTTEGDLKVEMMAGGTQITPLNDNVTIFCNIFYSQPLNITSMGITWFWKSLTFDKEVKVFEFFGDHQEAFRPGAIVSPWRLKSGDASLRLPGIQLEEAGEYRCEVVVTPLKAQGTVQLEVVASPASRLLLDQVGMKENEDKYMCESSGFYPEAINITWEKQTQKFPHPIEISEDVITGPTIKNMDGTFNVTSCLKLNSSQEDPGTVYQCVVRHASLHTPLRSNFTLTAARHSLSETEKTDNFSIHWWPISFIGVGLVLLIVLIPWKKICNKSSSAYTPLKCILKHWNSFDTQTLKKEHLIFFCTRAWPSYQLQDGEAWPPEGSVNINTIQQLDVFCRQEGKWSEVPYVQAFFALRDNPDLCQCCRIDPALLTVTSGKSIDDNSTKSEKQTPREHSDAVPDAPILPVSPIWEPPPATTSTTPVLSSQPPTLLLPLQ
stability_or_folding [23]: decreases
